Molecular target: T1, MHC class II I-A^b molecules purified by affinity chromatography (;mouse, UniProt P14434 24-218; P14483 28-226, limits assumed)
T1 construct: Source of the purified I-A^b is not described beyond 'as described (22)'; also called MHC II (I-A^b); MHC II
T1 sequence (MHC II alpha, looked up): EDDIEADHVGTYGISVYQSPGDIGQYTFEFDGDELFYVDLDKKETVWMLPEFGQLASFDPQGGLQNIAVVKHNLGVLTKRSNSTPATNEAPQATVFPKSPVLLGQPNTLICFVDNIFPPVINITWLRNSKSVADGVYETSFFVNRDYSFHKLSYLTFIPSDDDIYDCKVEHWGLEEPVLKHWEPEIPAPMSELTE
T1 sequence (MHC II beta, looked up): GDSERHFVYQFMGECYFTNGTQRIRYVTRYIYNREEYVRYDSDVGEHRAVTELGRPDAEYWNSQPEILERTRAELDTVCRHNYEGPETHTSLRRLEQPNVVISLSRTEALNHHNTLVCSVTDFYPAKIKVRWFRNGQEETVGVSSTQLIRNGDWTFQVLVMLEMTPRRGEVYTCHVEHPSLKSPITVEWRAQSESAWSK
Experiment: competitive binding assay, purified I-A^b, radiolabeled competitor peptide
Method: We have now examined AQP4 peptide affinity for I-A^b biochemically. I-A^b molecules that were purified by affinity chromatography were tested in a competitive binding assay between a radiolabeled high-affinity competitor peptide and unlabeled peptides (22). Indeed, peptides containing the two pathogenic AQP4 T cell determinants bound I-A^b with higher affinity than the nonpathogenic AQP4 p24-35 T cell epitope or MOG p35-55 (FIG. 2D).

B1: AQP4 p202-218 (peptide)
peptide: LFAINYTGASMNPARSF
notes: Synthetic peptide (Genemed Synthesis); also called pathogenic AQP4 T cell determinant
- fold greater affinity than MOG p35-55: > 10 fold
